Assay results reported in article PMC10714721.
Values joined by “and” are separate entries in the source; they are usually repeats but may differ in a detail not shown here. Equal entries are not always repeated.

Molecular target: histidine-tagged VfmH (Dickeya dadantii)
Assay: not stated; oligomerization pattern of VfmH with or without c-di-GMP or ATP (Fig. S5); method not given

In the case of histidine-tagged VfmH (natural protein), the stoichiometry N is reported as 6 and 2 and 3.
